Laboratory results: patent US7906705B2

How the values were obtained:
[1] = substrate: O=P(O)(O)O[C@H]1O[C@H](CO)[C@@H](O)[C@H](O)[C@H]1O; test: purified protein, by the assay type; conditions: other: UDP sugar synthesis direction, 2.5 mM UTP, substrate 0 to 5 mM, pH 7.5, 30° C.
[2] = substrate: O=P(O)(O)O[C@H]1O[C@H](CO)[C@H](O)[C@H](O)[C@H]1O; test: purified protein, by the assay type; conditions: other: UDP sugar synthesis direction, 2.5 mM UTP, substrate 0 to 5 mM, pH 7.5, 30° C., E. coli expressed, partially purified
[3] = E. coli expressed, partially purified

B1: melon UGGPase (UDP-Gal/Glc pyrophosphorylase), SEQ ID NO: 33 (Cucumis melo) (protein)
chain: MASSLDSAALTLSNLSINGDFASSLPNLQKNLHLLSPQQVELAKILLELGQSHLFEHWAEPGVDDNEKKAFFDQVARLNSSYPGGLASYIKTARGLLADSKEGKNPFDGFTPSVPTGEVLTFGDDSFVSFEDRGVREARKAAFVLVAGGLGERLGYNGIKVALPAETTTGTCFLQSYIEYVLALREASNRLAGESETEIPFVIMTSDDTHTRTVELLESNSYFGMKPSQVKLLKQEKVACLDDNEARLAVDPHNKYRIQTKPHGHGDVHALLYSSGLLKNWHNAGLRWVLFFQDTNGLLFKAIPASLGVSATREYHVNSLAVPRKAKEAIGGITRLTHTDGRSMVINVEYNQLDPLLRATGFPDGDVNNETGYSPFPGNINQLILELGSYIEELSKTQGAIKEFVNPKYKDATKTSFKSSTRLECMMQDYPKTLPPSARVGFTVMDTWVAYAPVKNNPEDAAKVPKGNPYHSATSGEMAIYRANSLVLRKAGVKVADPVEQVFNGQEVEVWPRITWKPKWGLTFSEIKSKINGNCSISPRSTLVIKGKNVYLKDLSLDGTLIVNADEDAEVKVEGSVHNKGWTLEPVDYKDTSVPEEIRIRGFRINKIEQEERN
Km [1, 3]: 0.27 mM
Vmax [1, 3]: 222 μmol mg protein^−1min^−1
Km [2]: 0.43 mM
Vmax [2]: 714 μmol mg protein^−1min^−1

B2: melon UGPase (UDP glucose pyrophosphorylase), SEQ ID NO: 35 (Cucumis melo) (protein)
chain: MASAATLSPADTEKLSKLKASVSGLTQISENEKSGFINLVSRYLSGEAQHVEWSKIQTPTDEVVVPYDSLAPVPNDPAETKKLLDKLVVLKLNGGLGTTMGCTGPKSVIEVRNGLTFLDLIVIQIENLNSKYGCNVPLLLMNSFNTHDDTQKIIEKYKGSNVDIHTFNQSQYPRLVAEDYLPLPSKGRTDKDGWYPPGHGDVFPSLKNSGKLDALIAQGKEYVFVANSDNLGAVVDLQILNHLIQNKNEYCMEVTPKTLADVKGGTLISYEGKVQLLEIAQVPDEHVNEFKSIQKFKIFNTNNLWVNLKAIKRLVEANALKMEIIPNPKEVDGIKVLQLETAAGAAIRFFDHAIGINVPRSRFLPVKATSDLLLVQSDLYTLVDGFVLRNKARKDPSNPSIELGPEFKKVGNFLSRFKSIPSIIELDSLKVVGDVSFGAGVVLKGKVTISAKPGTKLAVPDNAVIANKEINGPEDF
Km ([1]; ND = Not detected): 0.24 mM
Vmax ([1]; ND = Not detected): 238 μmol mg protein^−1min^−1
